The target in this data set is T1, SALL4 ZFC4 (human, UniProt Q9UJQ4 856-930).
T1 sequence: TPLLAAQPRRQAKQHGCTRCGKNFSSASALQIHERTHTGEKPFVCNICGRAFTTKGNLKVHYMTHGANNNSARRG
The data set is described as follows: ITC. Background: ITC needs no label: the signal is the heat of the interaction.

Drawing on article doi:10.1101/2022.06.13.496009, this text covers Kd for one molecule.

B1: 12-mer T3C/A3'G (dsDNA)
DNA 1: GGCAATATTTCC
DNA 2: GGAAATATTGCC
For orientation: Kd means the constant that tells how readily two partners part at equilibrium. A high value points to lower affinity. Molecule B1 came in with a Kd of roughly 9.95 µM.
